Experimental data taken from patent US20140087995A1 (published 2014).
Numbered stars: 1 amine (or outer) side, 2 acyl side, 3 side chain; on linkers, the order of the positions; unused ones are H or OH. Bridge positions count the residues as written; N and C are the ends. Side chains are listed from the residue outwards. Ends that are not written are not given here. * marks the point of attachment. C20 diacid = O=C(O)CCCCCCCCCCCCCCCCCCC(=O)*; γGlu = O=C(O)[C@H](CCC(=O)[*:2])N[*:1]; AEEA = NCCOCCOCC(=O)O

B1: N^α1-[(4S)-4-carboxy-4-(19-carboxynonadecanoylamino)butanoyl]-[Glu14,Arg17,Pro21,Pro27,Pro31]-h-amylin (peptide)
peptide: {C20 diacid-γGlu}-KCNTATCATQRLAEFLRHSSPNFGAIPSSTPVGSNTY-NH2
modifications: disulfide 2-7
SMILES: CC[C@H](C)[C@H](NC(=O)[C@H](C)NC(=O)CNC(=O)[C@H](Cc1ccccc1)NC(=O)[C@H](CC(N)=O)NC(=O)[C@@H]1CCCN1C(=O)[C@H](CO)NC(=O)[C@H](CO)NC(=O)[C@H](Cc1c[nH]cn1)NC(=O)[C@H](CCCNC(=N)N)NC(=O)[C@H](CC(C)C)NC(=O)[C@H](Cc1ccccc1)NC(=O)[C@H](CCC(=O)O)NC(=O)[C@H](C)NC(=O)[C@H](CC(C)C)NC(=O)[C@H](CCCNC(=N)N)NC(=O)[C@H](CCC(N)=O)NC(=O)[C@@H](NC(=O)[C@H](C)NC(=O)[C@@H]1CSSC[C@H](NC(=O)[C@H](CCCCN)NC(=O)CC[C@H](NC(=O)CCCCCCCCCCCCCCCCCCC(=O)O)C(=O)O)C(=O)N[C@@H](CC(N)=O)C(=O)N[C@@H]([C@@H](C)O)C(=O)N[C@@H](C)C(=O)N[C@@H]([C@@H](C)O)C(=O)N1)[C@@H](C)O)C(=O)N1CCC[C@H]1C(=O)N[C@@H](CO)C(=O)N[C@@H](CO)C(=O)N[C@H](C(=O)N1CCC[C@H]1C(=O)N[C@H](C(=O)NCC(=O)N[C@@H](CO)C(=O)N[C@@H](CC(N)=O)C(=O)N[C@H](C(=O)N[C@@H](Cc1ccc(O)cc1)C(N)=O)[C@@H](C)O)C(C)C)[C@@H](C)O
notes: also called compound 31
B2: N^α1-[(4S)-4-carboxy-4-(19-carboxynonadecanoylamino)butanoyl]-[His14,Arg17,Pro21,Pro27,Glu35]-h-amylin (peptide)
peptide: {C20 diacid-γGlu}-KCNTATCATQRLAHFLRHSSPNFGAIPSSTNVGSETY-NH2
modifications: disulfide 2-7
SMILES: CC[C@H](C)[C@H](NC(=O)[C@H](C)NC(=O)CNC(=O)[C@H](Cc1ccccc1)NC(=O)[C@H](CC(N)=O)NC(=O)[C@@H]1CCCN1C(=O)[C@H](CO)NC(=O)[C@H](CO)NC(=O)[C@H](Cc1c[nH]cn1)NC(=O)[C@H](CCCNC(=N)N)NC(=O)[C@H](CC(C)C)NC(=O)[C@H](Cc1ccccc1)NC(=O)[C@H](Cc1c[nH]cn1)NC(=O)[C@H](C)NC(=O)[C@H](CC(C)C)NC(=O)[C@H](CCCNC(=N)N)NC(=O)[C@H](CCC(N)=O)NC(=O)[C@@H](NC(=O)[C@H](C)NC(=O)[C@@H]1CSSC[C@H](NC(=O)[C@H](CCCCN)NC(=O)CC[C@H](NC(=O)CCCCCCCCCCCCCCCCCCC(=O)O)C(=O)O)C(=O)N[C@@H](CC(N)=O)C(=O)N[C@@H]([C@@H](C)O)C(=O)N[C@@H](C)C(=O)N[C@@H]([C@@H](C)O)C(=O)N1)[C@@H](C)O)C(=O)N1CCC[C@H]1C(=O)N[C@@H](CO)C(=O)N[C@@H](CO)C(=O)N[C@H](C(=O)N[C@@H](CC(N)=O)C(=O)N[C@H](C(=O)NCC(=O)N[C@@H](CO)C(=O)N[C@@H](CCC(=O)O)C(=O)N[C@H](C(=O)N[C@@H](Cc1ccc(O)cc1)C(N)=O)[C@@H](C)O)C(C)C)[C@@H](C)O
notes: also called compound 30
B3: N^ε1-[2-[2-[2-[[2-[2-[2-[[(4S)-4-carboxy-4-(19-carboxynonadecanoylamino)butanoyl]amino]ethoxy]ethoxy]acetyl]amino]ethoxy]ethoxy]acetyl]-[Arg17,Pro21,Pro27,Glu35 … (peptide)
peptide: K([AEEA-AEEA-γGlu-C20 diacid])CNTATCATQRLANFLRHSSPNFGAIPSSTNVGSETY-NH2
modifications: disulfide 2-7; N-terminus assumed
SMILES: CC[C@H](C)[C@H](NC(=O)[C@H](C)NC(=O)CNC(=O)[C@H](Cc1ccccc1)NC(=O)[C@H](CC(N)=O)NC(=O)[C@@H]1CCCN1C(=O)[C@H](CO)NC(=O)[C@H](CO)NC(=O)[C@H](Cc1c[nH]cn1)NC(=O)[C@H](CCCNC(=N)N)NC(=O)[C@H](CC(C)C)NC(=O)[C@H](Cc1ccccc1)NC(=O)[C@H](CC(N)=O)NC(=O)[C@H](C)NC(=O)[C@H](CC(C)C)NC(=O)[C@H](CCCNC(=N)N)NC(=O)[C@H](CCC(N)=O)NC(=O)[C@@H](NC(=O)[C@H](C)NC(=O)[C@@H]1CSSC[C@H](NC(=O)[C@@H](N)CCCCNC(=O)COCCOCCNC(=O)COCCOCCNC(=O)CC[C@H](NC(=O)CCCCCCCCCCCCCCCCCCC(=O)O)C(=O)O)C(=O)N[C@@H](CC(N)=O)C(=O)N[C@@H]([C@@H](C)O)C(=O)N[C@@H](C)C(=O)N[C@@H]([C@@H](C)O)C(=O)N1)[C@@H](C)O)C(=O)N1CCC[C@H]1C(=O)N[C@@H](CO)C(=O)N[C@@H](CO)C(=O)N[C@H](C(=O)N[C@@H](CC(N)=O)C(=O)N[C@H](C(=O)NCC(=O)N[C@@H](CO)C(=O)N[C@@H](CCC(=O)O)C(=O)N[C@H](C(=O)N[C@@H](Cc1ccc(O)cc1)C(N)=O)[C@@H](C)O)C(C)C)[C@@H](C)O
notes: also called compound 25
B4: N^ε1-[2-[2-[2-[[(4S)-4-carboxy-4-(19-carboxynonadecanoylamino)butanoyl]amino]ethoxy]ethoxy]acetyl]-[Arg17,Pro21,Pro27,Glu35]-h-amylin (peptide)
peptide: K([AEEA-γGlu-C20 diacid])CNTATCATQRLANFLRHSSPNFGAIPSSTNVGSETY-NH2
modifications: disulfide 2-7; N-terminus assumed
SMILES: CC[C@H](C)[C@H](NC(=O)[C@H](C)NC(=O)CNC(=O)[C@H](Cc1ccccc1)NC(=O)[C@H](CC(N)=O)NC(=O)[C@@H]1CCCN1C(=O)[C@H](CO)NC(=O)[C@H](CO)NC(=O)[C@H](Cc1c[nH]cn1)NC(=O)[C@H](CCCNC(=N)N)NC(=O)[C@H](CC(C)C)NC(=O)[C@H](Cc1ccccc1)NC(=O)[C@H](CC(N)=O)NC(=O)[C@H](C)NC(=O)[C@H](CC(C)C)NC(=O)[C@H](CCCNC(=N)N)NC(=O)[C@H](CCC(N)=O)NC(=O)[C@@H](NC(=O)[C@H](C)NC(=O)[C@@H]1CSSC[C@H](NC(=O)[C@@H](N)CCCCNC(=O)COCCOCCNC(=O)CC[C@H](NC(=O)CCCCCCCCCCCCCCCCCCC(=O)O)C(=O)O)C(=O)N[C@@H](CC(N)=O)C(=O)N[C@@H]([C@@H](C)O)C(=O)N[C@@H](C)C(=O)N[C@@H]([C@@H](C)O)C(=O)N1)[C@@H](C)O)C(=O)N1CCC[C@H]1C(=O)N[C@@H](CO)C(=O)N[C@@H](CO)C(=O)N[C@H](C(=O)N[C@@H](CC(N)=O)C(=O)N[C@H](C(=O)NCC(=O)N[C@@H](CO)C(=O)N[C@@H](CCC(=O)O)C(=O)N[C@H](C(=O)N[C@@H](Cc1ccc(O)cc1)C(N)=O)[C@@H](C)O)C(C)C)[C@@H](C)O
notes: also called compound 26
B5: N^ε1-[(4S)-4-carboxy-4-(19-carboxynonadecanoylamino)butanoyl]-[Arg17,Pro21,Pro27,Glu35]-h-amylin (peptide)
peptide: K([γGlu-C20 diacid])CNTATCATQRLANFLRHSSPNFGAIPSSTNVGSETY-NH2
modifications: disulfide 2-7; N-terminus assumed
SMILES: CC[C@H](C)[C@H](NC(=O)[C@H](C)NC(=O)CNC(=O)[C@H](Cc1ccccc1)NC(=O)[C@H](CC(N)=O)NC(=O)[C@@H]1CCCN1C(=O)[C@H](CO)NC(=O)[C@H](CO)NC(=O)[C@H](Cc1c[nH]cn1)NC(=O)[C@H](CCCNC(=N)N)NC(=O)[C@H](CC(C)C)NC(=O)[C@H](Cc1ccccc1)NC(=O)[C@H](CC(N)=O)NC(=O)[C@H](C)NC(=O)[C@H](CC(C)C)NC(=O)[C@H](CCCNC(=N)N)NC(=O)[C@H](CCC(N)=O)NC(=O)[C@@H](NC(=O)[C@H](C)NC(=O)[C@@H]1CSSC[C@H](NC(=O)[C@@H](N)CCCCNC(=O)CC[C@H](NC(=O)CCCCCCCCCCCCCCCCCCC(=O)O)C(=O)O)C(=O)N[C@@H](CC(N)=O)C(=O)N[C@@H]([C@@H](C)O)C(=O)N[C@@H](C)C(=O)N[C@@H]([C@@H](C)O)C(=O)N1)[C@@H](C)O)C(=O)N1CCC[C@H]1C(=O)N[C@@H](CO)C(=O)N[C@@H](CO)C(=O)N[C@H](C(=O)N[C@@H](CC(N)=O)C(=O)N[C@H](C(=O)NCC(=O)N[C@@H](CO)C(=O)N[C@@H](CCC(=O)O)C(=O)N[C@H](C(=O)N[C@@H](Cc1ccc(O)cc1)C(N)=O)[C@@H](C)O)C(C)C)[C@@H](C)O
notes: also called compound 27
B6: N^ε1-[(4S)-4-carboxy-4-(19-carboxynonadecanoylamino)butanoyl]-[Arg17,Pro21,Pro27,Lys35]-h-amylin (peptide)
peptide: K([γGlu-C20 diacid])CNTATCATQRLANFLRHSSPNFGAIPSSTNVGSKTY-NH2
modifications: disulfide 2-7; N-terminus assumed
SMILES: CC[C@H](C)[C@H](NC(=O)[C@H](C)NC(=O)CNC(=O)[C@H](Cc1ccccc1)NC(=O)[C@H](CC(N)=O)NC(=O)[C@@H]1CCCN1C(=O)[C@H](CO)NC(=O)[C@H](CO)NC(=O)[C@H](Cc1c[nH]cn1)NC(=O)[C@H](CCCNC(=N)N)NC(=O)[C@H](CC(C)C)NC(=O)[C@H](Cc1ccccc1)NC(=O)[C@H](CC(N)=O)NC(=O)[C@H](C)NC(=O)[C@H](CC(C)C)NC(=O)[C@H](CCCNC(=N)N)NC(=O)[C@H](CCC(N)=O)NC(=O)[C@@H](NC(=O)[C@H](C)NC(=O)[C@@H]1CSSC[C@H](NC(=O)[C@@H](N)CCCCNC(=O)CC[C@H](NC(=O)CCCCCCCCCCCCCCCCCCC(=O)O)C(=O)O)C(=O)N[C@@H](CC(N)=O)C(=O)N[C@@H]([C@@H](C)O)C(=O)N[C@@H](C)C(=O)N[C@@H]([C@@H](C)O)C(=O)N1)[C@@H](C)O)C(=O)N1CCC[C@H]1C(=O)N[C@@H](CO)C(=O)N[C@@H](CO)C(=O)N[C@H](C(=O)N[C@@H](CC(N)=O)C(=O)N[C@H](C(=O)NCC(=O)N[C@@H](CO)C(=O)N[C@@H](CCCCN)C(=O)N[C@H](C(=O)N[C@@H](Cc1ccc(O)cc1)C(N)=O)[C@@H](C)O)C(C)C)[C@@H](C)O
notes: also called compound 35

Each binder was assayed against T1, human calcitonin receptor (human, UniProt P30988 25-474) (assay: SPA competition against 125I-calcitonin, membranes with human calcitonin receptor (Assay VII)).
T1 construct: whole, on cells; Used as cell membranes prepared from the transfected BHK cells (Assay VII), not as intact cells; also called hCTR; hCT
T1 sequence (looked up): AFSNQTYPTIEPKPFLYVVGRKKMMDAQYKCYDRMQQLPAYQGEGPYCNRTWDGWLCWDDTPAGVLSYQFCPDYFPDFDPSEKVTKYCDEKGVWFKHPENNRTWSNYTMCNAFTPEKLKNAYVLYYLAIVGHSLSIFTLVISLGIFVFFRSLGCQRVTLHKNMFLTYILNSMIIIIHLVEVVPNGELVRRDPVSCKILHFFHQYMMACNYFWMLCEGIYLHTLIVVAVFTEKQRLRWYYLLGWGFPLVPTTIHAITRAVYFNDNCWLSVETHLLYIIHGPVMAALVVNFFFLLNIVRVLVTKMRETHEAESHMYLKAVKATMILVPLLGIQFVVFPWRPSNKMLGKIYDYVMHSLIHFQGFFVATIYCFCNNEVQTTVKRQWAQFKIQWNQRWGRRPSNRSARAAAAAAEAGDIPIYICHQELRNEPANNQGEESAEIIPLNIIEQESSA
Experimental: Membranes were prepared in the following way; the cells were rinsed with PBS and incubated with Versene for approximately 5 min before harvesting. The cells were flushed with PBS and the cell-suspension was centrifuged for 5 min at 1000 rpm. Cells were homogenized (Ultrathurrax) in a buffer containing 20 mM Na-HEPES and 10 mM EDTA (pH 7.4) and centrifuged at 20.000 rpm for 15 min. The resulting pellet was resuspended, homogenized and centrifuged (20.000 rpm, 15 min) in a buffer containing 20 mM Na-HEPES and 0.1 mM EDTA (pH 7.4, buffer 2). The resulting pellet was resuspended in buffer 2 and protein concentration was measured (BCA protein Assay, Pierce). The homogenate was kept cold during the whole procedure. The membranes were kept at −80° C. until use. Assay was performed in a 384 well Optiplate (PerkinElmer) in a total volume of 40 ul. Membranes were mixed with SPA beads. Final concentration of membranes 35 ng/μL final and Final concentration of SPA beads was 0.05 mg/well. Test-compounds were dissolved in DMSO and further diluted in assay buffer (50 mM Hepes, pH 7.4, 1 mM CaCl2, 5 mM MgCl₂, 0.1% OA and 0.02% Tween20). […] The final mixture was incubated for 120 min with shaking at 400 rpm at 25° C. prior to centrifugation (1500 rpm, 10 min). Samples were analyzed on TopCounter™ (Packard). The […] was calculated using (one site binding competition analysis) GraphPad Prism5 as a measure of receptor affinity.

In order of falling IC50:
1. B6  48.8 nM
2. B3  43.4 nM
3. B5  34.5 nM
4. B4  25.3 nM
5. B2  21.6 nM
6. B1  3.26 nM
